Patent publication US20190284266A1 (H LUNDBECK A S, published 2019)

Biological target: T1, hyperphosphorylated (pathological) tau from human Alzheimer's disease brain, phosphorylated at serine 396 (human, UniProt P10636 2-758, phosphoserine at 396; hyperphosphorylated at further sites that are not listed)
T1 construct: Brain-derived material (sections, S1, S1p and sarkosyl-insoluble P3 fractions, PBS extracts), a mixture of isoforms and aggregates; also called AD-P3; AD-P3 antigens
Assay: binding of pathological versus non-pathological tau, brain material (Table 5)

T1 sequence (P10636 other isoform, or with tags, fused parts or gaps limits assumed): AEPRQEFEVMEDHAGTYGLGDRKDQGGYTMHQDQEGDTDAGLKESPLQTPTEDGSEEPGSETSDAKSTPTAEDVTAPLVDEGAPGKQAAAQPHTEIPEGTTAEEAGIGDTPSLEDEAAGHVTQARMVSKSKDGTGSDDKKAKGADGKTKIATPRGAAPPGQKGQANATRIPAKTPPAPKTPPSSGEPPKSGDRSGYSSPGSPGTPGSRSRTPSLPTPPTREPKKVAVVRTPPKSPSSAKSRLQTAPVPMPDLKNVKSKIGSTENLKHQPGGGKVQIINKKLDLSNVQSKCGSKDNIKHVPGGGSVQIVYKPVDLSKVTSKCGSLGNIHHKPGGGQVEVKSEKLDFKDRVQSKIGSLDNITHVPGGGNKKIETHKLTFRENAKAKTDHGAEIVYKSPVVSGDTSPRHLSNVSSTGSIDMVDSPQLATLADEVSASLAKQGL

AD/ctrl (ratio of binding to AD brain tau over control brain tau) [fold] | Binder
3 | HJ8.5 (antibody, V domains shown) VH: EVKVEESGGGLVQPGGSMKLSCVVSGFTFSNYWVNWVRQSPEKGLEWVAQIRLKSDNYATHYEESVKGRFTISRDDSKSSVYLQMNNLRAEDSGIYYCTNWEDYWGQGTTLTVSS VL: DIVLTQSPASLAVSLGQRATISCRASQSVSTSRYSYIHWYQQKPGQPPKLLIKYASNLESGVPARFSGSGSGTDFTLNIHPLEEEDAATYYCHHSWEIPLTFGAGTKLELK
3 | IPN002 (antibody, V domains shown) VH: EVHLVESGGALVKPGGSLKLSCAASGFSFSKYGMSWVRQTPDKRLEWVATISSSGSRTYYPDSVKGQFTISRDNAKNTLYLQMSSLKSEDTAMYYCSISWDGAMDYWGQGTSVTVSS VL: DVLMTQTPLSLPVSLGDQASISCKSSQSIVHSNGNTYLEWYLQKPGQSPKLLVYKVSNRFSGVPDRFSGSGSGTDFTLKISRVEAEDLGTYYCFQGSLVPWAFGGGTKLEIK
